Assay [1] deals with T1, full length recombinant human 2N4R tau (human, UniProt P10636 1-758).
T1 construct: bought from rPeptide; pHrodo Red maleimide-labelled where it stands in uptake assays; also called tau1-441; full length tau
Briefly: ELISA, tau coated on the plate. How it is done: ELISA plates were coated with antigen (non-conjugated antigen peptide (Antigen peptide ([C]-[…]-amide (SEQ ID NO: 13)) or full length 2N4R tau (SEQ ID NO: 2), 100 ng/well; or 1% BSA in 1×TBS) in 1× carbonate-bicarbonate buffer for 1 hour at 37° C. Antigen was removed from wells and the plates were then blocked for 1 hour at RT with 5% dried milk in 1×TBS. Blocking solution was removed, HEK293F cell supernatant (10 μg/mL, to 0.0001 μg/mL in 1% BSA/1×TBS) was added to relevant wells, and plates were incubated for 1 hour at RT with gentle shaking. Plates were then washed four times with TBS/0.1% Tween (TBST). Anti-rabbit IgG-HRP antibody (Sigma, St Louis, MO, USA), diluted 1:5000 in 5% milk/TBS, was added to each well and plates were incubated for 1 hour at RT with gentle shaking before being washed four times with TBST. 3,3′,5,5′-tetramethylbenzidine (TMB) ELISA solution was added to each well and plates were incubated for 15 mins at RT. An equal volume of 1 M sulfuric acid was added to each well and OD was measured at 450 nm.

Assay [2] has as its target T1, full length recombinant human 2N4R tau. Briefly: SPR SCK, IgG on Protein A, tau in flow.
For assay [3], the target named is T2, Bovine serum albumin (bovine, UniProt P02769 25-607).
T2 construct: also called BSA
T2 sequence (P02769 25-607 limits assumed): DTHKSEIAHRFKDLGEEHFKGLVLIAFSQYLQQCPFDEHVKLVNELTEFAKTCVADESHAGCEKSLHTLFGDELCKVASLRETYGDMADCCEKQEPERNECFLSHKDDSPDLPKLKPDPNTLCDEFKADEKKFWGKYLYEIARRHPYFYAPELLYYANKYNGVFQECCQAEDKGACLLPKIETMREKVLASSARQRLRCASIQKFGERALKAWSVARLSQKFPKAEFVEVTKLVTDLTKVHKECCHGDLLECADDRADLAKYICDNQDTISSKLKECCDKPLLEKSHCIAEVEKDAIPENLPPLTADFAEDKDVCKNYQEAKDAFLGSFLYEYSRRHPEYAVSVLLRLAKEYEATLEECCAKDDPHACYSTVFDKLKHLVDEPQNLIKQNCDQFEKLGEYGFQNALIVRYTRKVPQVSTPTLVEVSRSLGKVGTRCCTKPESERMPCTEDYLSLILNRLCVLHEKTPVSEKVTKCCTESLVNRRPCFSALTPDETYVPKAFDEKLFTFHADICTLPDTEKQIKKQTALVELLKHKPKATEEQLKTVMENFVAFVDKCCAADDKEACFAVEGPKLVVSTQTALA
Description: ELISA on 1% BSA, HEK supernatant, anti-human IgG-HRP, n=1. A general note: ELISA stands for enzyme-linked immunosorbent assay.

For assay [4], the target named is T1, full length recombinant human 2N4R tau. Description: SPR MCK, IgG on Protein A, tau in flow at 100 µL/min; on the border of mass transport limitation.
For assay [5] the target is unchanged. Description: SPR MCK, IgG on Protein A, tau in flow at 100 µL/min.
Assay [6] addresses aggregated (oligomeric) P301S 2N4R tau, pHrodo-labelled (human, UniProt P10636 1-758, pHrodo Red maleimide label). Briefly: cell-based or functional assay.
Assay [7] deals with monomeric P301S 2N4R tau, pHrodo-labelled (human, UniProt P10636 1-758, pHrodo Red maleimide label). Briefly: cell-based or functional assay.
Sequence of monomeric P301S 2N4R tau, pHrodo-labelled (P10636 other isoform, or with tags, fused parts or gaps P301S P301S): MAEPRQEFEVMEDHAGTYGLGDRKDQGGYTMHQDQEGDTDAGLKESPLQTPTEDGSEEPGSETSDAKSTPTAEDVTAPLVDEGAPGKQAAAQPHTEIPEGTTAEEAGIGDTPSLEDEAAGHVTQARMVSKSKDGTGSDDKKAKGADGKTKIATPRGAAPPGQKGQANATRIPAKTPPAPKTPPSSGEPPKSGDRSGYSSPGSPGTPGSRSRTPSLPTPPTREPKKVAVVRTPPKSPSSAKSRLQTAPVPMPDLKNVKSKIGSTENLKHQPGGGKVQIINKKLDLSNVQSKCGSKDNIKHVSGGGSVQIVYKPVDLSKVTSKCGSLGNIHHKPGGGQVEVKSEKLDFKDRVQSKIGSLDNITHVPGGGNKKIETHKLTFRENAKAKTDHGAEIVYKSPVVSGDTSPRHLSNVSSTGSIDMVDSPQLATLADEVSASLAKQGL
The target of assay [8] is T2, Bovine serum albumin. Description: ELISA on 1% BSA, HEK supernatant, anti-human IgG-HRP, n=1. The procedure, abridged:
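Wells coated with antigen, blocked 1 h RT in 5% milk/TBS; HEK293 transient-transfection supernatants applied at 1:100 in 1% BSA/TBS for 1 h RT. Bound hIgG1 detected with anti-human IgG-HRP (1:2000), TMB 15 min, acid stop, OD450; single replicate.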
The source holds these as a separate data set.

Assay [9] concerns the target T1, full length recombinant human 2N4R tau. Description: ELISA on 2N4R tau (100 ng/well), HEK supernatant, anti-human IgG-HRP, n=1. How it is done: FIG. 7. A panel of humanised anti-tau IgG bind to full length recombinant 2N4R tau in an ELISA format. Supernatants from HEK cells transiently transfected with each IgG clone were tested at 1:100 for binding to full length recombinant 2N4R tau (solid bars). […] Binding of anti-tau hIgG1 was detected using an HRP-conjugated anti-human secondary antibody and data are shown from a representative experiment (n=1 replicate).
Antigen was removed from wells and the plates were then blocked for 1 hour at RT with 5% dried milk in 1×TBS. Blocking solution was removed, HEK293 cell supernatant (1:100 in 1% BSA/1×TBS) was added to relevant wells, and plates were incubated for 1 hour at RT with gentle shaking. Plates were then washed four times with TBS/0.1% Tween (TBST). Goat anti-human IgG-HRP antibody (Thermo Fisher Scientific, Waltham, MA, USA), diluted 1:2000 in 5% milk/TBS, was added to each well and plates were incubated for 1 hour at RT with gentle shaking before being washed four times with TBST. 3,3′,5,5′-tetramethylbenzidine (TMB) ELISA solution was added to each well and plates were incubated for 15 mins at RT. An equal volume of 1 M sulfuric acid was added to each well and OD was measured at 450 nm.

Where a chain is given by its changes, count along the chain named. Like-named read-outs stand apart in the source and are kept apart here.

Sequence of aggregated (oligomeric) P301S 2N4R tau, pHrodo-labelled (P10636 other isoform, or with tags, fused parts or gaps P301S P301S): as above
T1 sequence (P10636 other isoform, or with tags, fused parts or gaps limits assumed): as the sequence (P10636 other isoform, or with tags, fused parts or gaps P301S P301S) above, with S301P counted along it

B1: Clone 1 (#66) rabbit monoclonal IgG (antibody, V domains shown)
VH: QSVEESGGRLVTPGTPLTLTCTVSGIDLSSNAMIWVRQAPGKGLEYIGNIGTHGTTYYASWAKGRFTISKTSTTVDLKMTSPTTEDTATYFCSRGDIWGPGTLVTVSL
VL: AQVLTQTESPVSAPLRGTVTINCQASQSVDDNNNLAWYQQKPGQPPKLLIYEASTLASGVSSRFKGSGSGTQFTLTISDVQCDDAATYYCLGEFSCSSADCVVFGGGTEVVVKG
notes: rabbit IgG; also called clone #66; B9
For B1, in assay [1], the concentration giving a half-maximal response (EC50) (commonly the concentration at which the effect is half-maximal) amounted to 0.82 nM.

B2: #44_VH4VK4_H04/pVL (antibody, V domains shown)
VH: QVQLQESGPGLVKPSETLSLTCTVSGIDLSSYAMAWVRQAPGKGLEWIGCIDRRGGTFYASWVKGRFTISKDTSKTTVDLQMTSLTAEDTATYFCARDAGSFHPWGQGTLVTVSS
VL: DIQMTQSPSSLSASVGDRVTITCQASQSVYDNYLAWYQQKPGQPPKLLIHAASNLASGVPSRFSGSGSGTEFTLTISSLQPDDFATYYCLGEFSCTTTDCNVFGGGTKVEIK
notes: also called VH04/pVL; Clone VH4_H04
In the case of B2, in assay [2], the “Fold change (KD, to pVH/pVL)” value came out at 11.1; the dissociation constant (Kd) (usually the constant that tells how readily two partners part at equilibrium) was found to be 0.593 nM; the koff (in general, a measure of how fast the partners let go of each other) was found to be 0.0017 s⁻¹; the kon (usually the second-order rate constant of association) worked out at 2.86e+06 M⁻¹ s⁻¹. The binding result in the assay with Bovine serum albumin [3] is given as “no binding (tested: 30 ng/ml (legend 1:100))”. Besides, the Kd in [4] was 0.736 nM. For the same molecule, in assay [5], the “Fold improvement (KD, to pVH/pVL)” value came out at 10.5; the off-rate constant (koff) was determined as 0.00185 s⁻¹; the kon is 2.51e+06 M⁻¹ s⁻¹. Further, in assay [6], the “inhibition of aggregated tau uptake into human astrocytes” value was found to be 32.6% and the “inhibition of aggregated tau uptake into human iPSC-derived neurons” value was determined as 65.5%. Further, in assay [7], the “inhibition of monomeric tau uptake into human astrocytes” value worked out at 35.6% and the “inhibition of monomeric tau uptake into human iPSC-derived neurons” value was found to be 81.8%.

B3: #44 VH6VK1 humanised hIgG1 (antibody, V domains shown)
VH: QVQLQESGPGLVKPSETLSLTCTVSGIDLSSYAMSWVRQAPGKGLEWVSCIDRRGGTFYASWVKGRFTISRDNSKNTLDLQMTSLTAEDTATYYCARDSGAFDPWGQGTLVTVSS
VL: B2 VL with D1Q, Q3V, G58R, S64K, P81C, K108E, E110V
notes: also called VH6Vκ1
As for B3, the binding result (in the assay with Bovine serum albumin [8]; in assay [9]) was “no binding (tested: supernatant 1:100)” each time.

B4: #44_VH4VK4_H06/pVL (antibody, V domains shown)
VH: B2 VH with C50V, R53A, R54A, G56H, A99S, S101T, H103D
VL: B2 VL
notes: also called Clone VH4_H06; #44_VH4_H06
In the case of B4, in assay [2], the “Fold change (KD, to pVH/pVL)” value was determined as 5.77; the Kd was determined as 1.14 nM; the koff was 0.00444 s⁻¹; the kon came out at 3.9e+06 M⁻¹ s⁻¹. Moreover, the binding result with Bovine serum albumin [3] is recorded as “no binding (tested: 30 ng/ml (legend 1:100))”. Further, in assay [4], the dissociation constant (Kd) amounted to 1.53 nM. Besides, in [5], the “Fold improvement (KD, to pVH/pVL)” value came to 5; the off-rate constant (koff) is 0.00524 s⁻¹; the kon stood at 3.43e+06 M⁻¹ s⁻¹. In assay [6], the “inhibition of aggregated tau uptake into human astrocytes” value stood at 39.1% and the “inhibition of aggregated tau uptake into human iPSC-derived neurons” value stood at 55%. In assay [7], the “inhibition of monomeric tau uptake into human astrocytes” value stood at 35.1% and the “inhibition of monomeric tau uptake into human iPSC-derived neurons” value was found to be 71%.

B5: Clone 2 (#44) rabbit monoclonal IgG (antibody, V domains shown)
VH: QSVEESGGRLVTPGTPLTLTCTVSGIDLSSYAMAWVRQAPGKGLEWIGCIDRRGGTFYASWVKGRFTISKTSTTVDLKMTSLTTEDTATYFCARDSGAFDPWGPGTLVTVSS
VL: QIVMTQTPSSVSAAVGGTVTIKCQASQSVYDNYLAWYQQKPGQPPKLLIHAASNLASRVPSRFKGSGSGTQFTLTISDVQCDDAATYYCLGEFSCTTTDCNVFGGGTEVVVKG
notes: rabbit IgG; also called clone #44; D6
Turning to B5, the concentration giving a half-maximal response (EC50) in assay [1] was 1.05 nM.

For the origin of these results see patent publication US20250270301A1 (GEN2 NEUROSCIENCE, published 2025).
